Source: publication PMC2761383, “Structural and functional characteristics of xenavidin, the first frog avidin from Xenopus tropicalis” (BMC Structural Biology, 2009)

How the values were obtained:
[1] = target: xenavidin (Xenopus tropicalis); assay: SEC; Superdex 200 10/300 GL, 50 mM sodium phosphate pH 7.0, 650 mM NaCl; samples with and without an excess of biotin
[2] = target: xenavidin (Xenopus tropicalis); assay: crystal structure; sitting-drop vapour diffusion at 22°C, with and without D-biotin; space group R32, dimer in the asymmetric unit; 1.7 Å
[3] = target: xenavidin, acetylated in vitro (Xenopus tropicalis); assay: SDS-PAGE thermostability assay; acetylated protein saturated with biotin, thermal treatment for 20 min in the presence of SDS and 2-mercaptoethanol, SDS-PAGE with Coomassie staining

stoichiometry N [1]	stoichiometry N [2]	stoichiometry N [3]	Substance
4	4	–	xenavidin (natural protein)
–	–	4	xenavidin, acetylated in vitro (natural protein)
